The target in this experiment is T1, human BAFF (10056-HNCH, Sino biological) (human, UniProt Q9Y275 134-285).
T1 construct: Bought protein
The experiment in a line: ELISA, BAFF coated, sample titrated. How it is done:
The binding activity of the antibodies or fusion proteins for BAFF, APRIL, and IL-12/23 p40 was assayed by the ELISA method (coating an antigen protein). The specific procedures were as follows:
A BAFF (Sino biological, 10056-HNCH), APRIL (R&D Systems, 5860-AP-010/CF), or IL-12/23 p40 (Sino biological, 10052-H08H) protein was diluted to 1 μg/mL with a PBS (BasalMedia, B320) buffer at pH 7.4, and added to a 96-well microplate (Corning, 3590) at 100 μL/well. The plate was incubated at 4° C. overnight. After the liquid was discarded, 300 μL of 5% skim milk (BD, 232100) diluted with PBS was added to each well for blocking, and the plate was incubated at 37° C. for 2 h. After the blocking was completed, the blocking solution was discarded, and the plate was washed 3 times with a PBST buffer (PBS at pH 7.4 containing 0.1% tween-20). 100 μL of test antibody or fusion protein solution diluted in a gradient was added to each well, and the plate was incubated at 37° C. for 1 h. After the incubation was completed, the plate was washed 3 times with PBST. […] The plate was washed 3 times with PBST. […] The plate was read for absorbance values at 450 nm on a microplate reader, the binding curves of the antibodies to an antigen were fitted with software, and the EC₅₀ values were calculated.

B1: RCT-18 (Telitacicept) (Fc fusion)
chain: SRVDQEERFPQGLWTGVAMRSCPEEQYWDPLLGTCMSCKTICNHQSQRTCAAFCRSLSCRKEQGKFYDHLLRDCISCASICGQHPKQCAYFCENKLRSPVNLPPELDKTHTCPPCPAPEAEGAPSVFLFPPKPKDTLMISRTPEVTCVVVDVSHEDPEVKFNWYVDGVEVHNAKTKPREEQYNSTYRVVSVLTVLHQDWLNGKEYKCKVSNKALPSSIEKTISKAKGQPREPQVYTLPPSRDELTKNQVSLTCLVKGFYPSDIAVEWESNGQPENNYKTTPPVLDSDGSFFLYSKLTVDKSRWQQGNVFSCSVMHEALHNHYTQKSLSLSPGK
notes: Positive control; TACI part is positions 13-118 of the extracellular region of human TACI, the rest is Fc
In the case of B1, the EC50 turned out to be 6.71 nM.

The record behind these values is patent US20240301031A1 (JIANGSU HENGRUI PHARMACEUTICALS, published 2024).
